Consider one molecule from patent publication CN114075278A.

For assay [1], the target named is 流感A抗原. Kind of assay: sandwich ELISA: antibody at 1250 ng/ml captured on goat anti-mouse IgG, Flu-A antigen, HRP-labelled paired mAb.
Assay [2] has as its target 流感A抗原. Kind of assay: sandwich ELISA: antibody at 5000 ng/ml captured on goat anti-mouse IgG, Flu-A antigen, HRP-labelled paired mAb. A general note: ELISA stands for enzyme-linked immunosorbent assay.
Assay [3] deals with 流感A抗原.
For assay [4], the target named is 流感A抗原. The assay is described as follows: sandwich ELISA: antibody at 312.5 ng/ml captured on goat anti-mouse IgG, Flu-A antigen, HRP-labelled paired mAb.
Assay [5] addresses 流感A抗原. The assay is described as follows: biolayer interferometry, AMC sensors, antibody immobilised, antigen in a dilution series. Background: Biolayer interferometry detects binding as a change in optical thickness at a sensor tip.
In assay [6] the target is 流感A抗原. The assay is described as follows: sandwich ELISA: antibody at 625 ng/ml captured on goat anti-mouse IgG, Flu-A antigen, HRP-labelled paired mAb.
For assay [7], the target named is 流感A抗原. The assay is described as follows: sandwich ELISA: antibody at 2500 ng/ml captured on goat anti-mouse IgG, Flu-A antigen, HRP-labelled paired mAb.

Like-named read-outs stand apart in the source and are kept apart here.

B1: 实施例1的抗Flu-A抗体(WT) (antibody, V domains shown)
VH: EVQLQQSGPELVKPGASVKISCKASGFSFSGYYLHWVRQSPLKSLEWIGRINPYNGGTTYNQDFKGKASLTVDKSSSTAYMELHSLTSEDSAVYYCARYSSVDAMDYWGQGTSVTVSS
VL: QIVLTQSPAIMSASLGERVTMTCTGSSSVLSSYLHWYQQKPGSSPKLWIYSSSNLASGVPARFSGSGSGTSYSLTISSMEAEDAATYYCQQWHRSPWTFGGGTKLEIKR
Usually Kd stands for the equilibrium constant for the complex coming apart. The low end stands for tighter binding, the high end for weaker binding. With B1, the OD450 (ref 630 nm) with 流感A抗原 [1] was 0.946 OD; in the assay with 流感A抗原 [2] it was 1.73 OD; in the assay with 流感A抗原 [3], greater than 1 OD; with 流感A抗原 [4] it was 0.535 OD; in the assay with 流感A抗原 [6] it was 0.754 OD; with 流感A抗原 [7], 1.39 OD. In the assay with 流感A抗原 [5], this molecule displayed a Kd of 40.5 nM.
